Assay results: article PMC8062120

Columns and labels:
[1] = molecular target: F-actin (rabbit skeletal muscle actin, polymerized), P68135; test: F-actin co-sedimentation assay; settings: chain shown with the change; for response: 8 μM protein, percentage of theoretical total binding (100%), parent: est. 95, read off a plot
[2] = molecular target: T1, F-actin (rabbit skeletal muscle actin, polymerized) (rabbit), P68135; test: co-sedimentation; F-actin co-sedimentation, conditions B2 (PIPES pH 6.8, 100 mM NaCl); fixed 6 μM myotilin fragment in 20 μl mixed with pre-polymerized F-actin (0 to 60 μM) in 20 μl; one site-specific binding fit; apparent Kd; settings: remark: other sources report otherwise
[3] = molecular target: T1, F-actin (rabbit skeletal muscle actin, …); test: co-sedimentation; F-actin co-sedimentation, conditions B1 (HEPES pH 7.4); fixed 16 μM myotilin construct in 20 μl mixed with pre-polymerized F-actin (0–120 μM) in 20 μl; room temperature 30 min, 125,000 × g; densitometry, one site-specific binding fit; apparent Kd; settings: remark: other sources report otherwise

Row | response [1] [% bound] | Binder | further results
1 | 72 | Myotilin Ig1Ig2^250–444 (Ig1Ig2 tandem), Q9UBF9 K359A (protein) PRFIQVPENMSIDEGRFCRMDFKVSGLPAPDVSWYLNGRTVQSDDLHKMIVSEKGLHSLIFEVVRASDAGAYACVAKNRAGEATFTVQLDVLAKEHKRAPMFIYKPQSKAVLEGDSVKLECQISAIPPPKLFWKRNNEMVQFNTDRISLYQDNTGRVTLLIKDVNKKDAGWYTVSAVNEAGVTTCNTRLDVTARP | –
2 | 55 | Myotilin Ig1Ig2^250–444 (Ig1Ig2 tandem), Q9UBF9 K354A (protein) PRFIQVPENMSIDEGRFCRMDFKVSGLPAPDVSWYLNGRTVQSDDLHKMIVSEKGLHSLIFEVVRASDAGAYACVAKNRAGEATFTVQLDVLAKEHKRAPMFIYAPQSKKVLEGDSVKLECQISAIPPPKLFWKRNNEMVQFNTDRISLYQDNTGRVTLLIKDVNKKDAGWYTVSAVNEAGVTTCNTRLDVTARP | –
3 | – | Myotilin Ig1Ig2^250–444 (Ig1Ig2 tandem), Q9UBF9 R405K (protein) PRFIQVPENMSIDEGRFCRMDFKVSGLPAPDVSWYLNGRTVQSDDLHKMIVSEKGLHSLIFEVVRASDAGAYACVAKNRAGEATFTVQLDVLAKEHKRAPMFIYKPQSKKVLEGDSVKLECQISAIPPPKLFWKRNNEMVQFNTDRISLYQDNTGKVTLLIKDVNKKDAGWYTVSAVNEAGVTTCNTRLDVTARP | Kd ([1]; B1 conditions (asterisk)): 7.5 µM
4 | 87 | Myotilin Ig1Ig2^250–444 (Ig1Ig2 tandem), Q9UBF9 K367A (protein) PRFIQVPENMSIDEGRFCRMDFKVSGLPAPDVSWYLNGRTVQSDDLHKMIVSEKGLHSLIFEVVRASDAGAYACVAKNRAGEATFTVQLDVLAKEHKRAPMFIYKPQSKKVLEGDSVALECQISAIPPPKLFWKRNNEMVQFNTDRISLYQDNTGRVTLLIKDVNKKDAGWYTVSAVNEAGVTTCNTRLDVTARP | –
5 | – | Myotilin Ig1Ig2^250–444 (Ig1Ig2 tandem), Q9UBF9 250-444 (domain or fragment) PRFIQVPENMSIDEGRFCRMDFKVSGLPAPDVSWYLNGRTVQSDDLHKMIVSEKGLHSLIFEVVRASDAGAYACVAKNRAGEATFTVQLDVLAKEHKRAPMFIYKPQSKKVLEGDSVKLECQISAIPPPKLFWKRNNEMVQFNTDRISLYQDNTGRVTLLIKDVNKKDAGWYTVSAVNEAGVTTCNTRLDVTARP | Kd [2]: 12.9 µM; Kd [3]: 9.2 µM
6 | 87 | Myotilin Ig1Ig2^250–444 (Ig1Ig2 tandem), Q9UBF9 K411A (protein) PRFIQVPENMSIDEGRFCRMDFKVSGLPAPDVSWYLNGRTVQSDDLHKMIVSEKGLHSLIFEVVRASDAGAYACVAKNRAGEATFTVQLDVLAKEHKRAPMFIYKPQSKKVLEGDSVKLECQISAIPPPKLFWKRNNEMVQFNTDRISLYQDNTGRVTLLIADVNKKDAGWYTVSAVNEAGVTTCNTRLDVTARP | –
7 | 94 | Myotilin Ig1Ig2^250–444 (Ig1Ig2 tandem), Q9UBF9 Q356A (protein) PRFIQVPENMSIDEGRFCRMDFKVSGLPAPDVSWYLNGRTVQSDDLHKMIVSEKGLHSLIFEVVRASDAGAYACVAKNRAGEATFTVQLDVLAKEHKRAPMFIYKPASKKVLEGDSVKLECQISAIPPPKLFWKRNNEMVQFNTDRISLYQDNTGRVTLLIKDVNKKDAGWYTVSAVNEAGVTTCNTRLDVTARP | –
8 | 80 | Myotilin Ig1Ig2^250–444 (Ig1Ig2 tandem), Q9UBF9 K358A (protein) PRFIQVPENMSIDEGRFCRMDFKVSGLPAPDVSWYLNGRTVQSDDLHKMIVSEKGLHSLIFEVVRASDAGAYACVAKNRAGEATFTVQLDVLAKEHKRAPMFIYKPQSAKVLEGDSVKLECQISAIPPPKLFWKRNNEMVQFNTDRISLYQDNTGRVTLLIKDVNKKDAGWYTVSAVNEAGVTTCNTRLDVTARP | –
9 | 42 | Myotilin Ig1Ig2^250–444 (Ig1Ig2 tandem), Q9UBF9 K354A; K359A (protein) PRFIQVPENMSIDEGRFCRMDFKVSGLPAPDVSWYLNGRTVQSDDLHKMIVSEKGLHSLIFEVVRASDAGAYACVAKNRAGEATFTVQLDVLAKEHKRAPMFIYAPQSKAVLEGDSVKLECQISAIPPPKLFWKRNNEMVQFNTDRISLYQDNTGRVTLLIKDVNKKDAGWYTVSAVNEAGVTTCNTRLDVTARP | –
10 | – | Full-length myotilin with N-terminal thioredoxin tag (Trx-MYOT), Q9UBF9 1-498 (natural protein) MFNYERPKHFIQSQNPCGSRLQPPGPETSSFSSQTKQSSIIIQPRQCTEQRFSASSTLSSHITMSSSAFPASPQQHAGSNPGQRVTTTYNQSPASFLSSILPSQPDYNSSKIPSAMDSNYQQSSAGQPINAKPSQTANAKPIPRTPDHEIQGSKEALIQDLERKLKCKDTLLHNGNQRLTYEEKMARRLLGPQNAAAVFQAQDDSGAQDSQQHNSEHARLQVPTSQVRSRSTSRGDVNDQDAIQEKFYPPRFIQVPENMSIDEGRFCRMDFKVSGLPAPDVSWYLNGRTVQSDDLHKMIVSEKGLHSLIFEVVRASDAGAYACVAKNRAGEATFTVQLDVLAKEHKRAPMFIYKPQSKKVLEGDSVKLECQISAIPPPKLFWKRNNEMVQFNTDRISLYQDNTGRVTLLIKDVNKKDAGWYTVSAVNEAGVTTCNTRLDVTARPNQTLPAPKQLRVRPTFSKYLALNGKGLNVKQAFNPEGEFQRLAAQSGLYESEEL | Kd [2]: 0.29 µM
